Data published in publication doi:10.1101/2023.09.10.557050 (bioRxiv, 2023).
Substitutions are numbered along the chain they refer to. Names may count otherwise. Where two headings read alike, the source gives them in different places.

Experiments:
Assay in all cases: cryo-EM structure
[1] = molecular target: T1, EcNhaA WT-like triple mutant (A109T, Q277G, L296M) (E. coli), P13738; settings: remark: other sources report otherwise
T1 chain: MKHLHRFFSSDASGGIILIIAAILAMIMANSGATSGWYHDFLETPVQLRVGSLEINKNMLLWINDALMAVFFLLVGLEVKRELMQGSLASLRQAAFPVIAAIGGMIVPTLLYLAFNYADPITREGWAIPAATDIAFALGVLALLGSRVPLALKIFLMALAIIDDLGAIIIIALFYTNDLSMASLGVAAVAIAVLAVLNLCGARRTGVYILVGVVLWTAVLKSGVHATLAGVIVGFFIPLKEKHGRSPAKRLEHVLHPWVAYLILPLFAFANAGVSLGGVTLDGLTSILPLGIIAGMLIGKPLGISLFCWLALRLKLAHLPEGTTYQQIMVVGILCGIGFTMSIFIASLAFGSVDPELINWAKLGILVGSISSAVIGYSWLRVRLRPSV

cryo-EM structure [2] = molecular target: the molecule itself
cryo-EM structure [3] = molecular target: the molecule itself; remark: listed apart in the source

B1: EcNhaA WT-like triple mutant (A109T, Q277G, L296M), P13738 1-388 (natural protein)
chain: T1 chain
[1]
  stoichiometry N: 2

B2: horse NHE9* (residues 8 to 575), tag removed (domain or fragment, UniProt F7B113 8-575, looked up)
chain: MSEKDEYQFQHQGAVELLVFNFLLILTILTIWLFKNHRFRFLHETGGAMVYGLIMGLILRYATAPTDIESGTVYDCGKLAFSPSTLLINITDQVYEYKYKREISQHNINPHLGNAILEKMTFDPEIFFNVLLPPIIFHAGYSLKKRHFFQNLGSILTYAFLGTAISCIVIGLIMYGFVKAMVYAGQLKNGDFHFTDCLFFGSLMSATDPVTVLAIFHELHVDPDLYTLLFGESVLNDAVAIVLTYSISIYSPKENPNAFDAAAFFQSVGNFLGIFAGSFAMGSAYAVVTALLTKFTKLCEFPMLETGLFFLLSWSAFLSAEAAGLTGIVAVLFCGVTQAHYTYNNLSLDSKMRTKQLFEFMNFLAENVIFCYMGLALFTFQNHIFNALFILGAFLAIFVARACNIYPLSFLLNLGRKHKIPWNFQHMMMFSGLRGAIAFALAIRDTESQPKQMMFSTTLLLVFFTVWVFGGGTTPMLTWLQIRVGVDLDEDLKERPSSHQEANNLEKSTTKTESAWLFRMWYGFDHKYLKPILTHSGPPLTTTLPEWCGPISRLLTSPQAYGEQLKED
cryo-EM structure [2]
  stoichiometry N: 2

B3: horse NHE9*CC (L139C-I444C double mutant), tag removed (domain or fragment, UniProt F7B113 8-575, looked up)
chain: B2 chain with L132C, I437C
cryo-EM structure [3]
  stoichiometry N: 2
